Substitutions are numbered along the chain they refer to. Names and notes keep the numbering of the source.
B1: C35S-hTRX (enzyme)
chain: MVKQIESKTAFQEALDAAGDKLVVVDFSATWCGPSKMIKPFFHSLSEKYSNVIFLEVDVDDCQDVASECEVKCMPTFQFFKKGQKVGEFSGANKEKLEATINELV
B2: C69S-hTRX (enzyme)
chain: B1 chain with S35C, C69S
B3: IAA-treated hTRX (thiol-free variant) (enzyme)
chain: B1 chain with S35C
modifications: all cysteine residues chemically modified with iodoacetamide
B4: C32/35S-hTRX (enzyme)
chain: B1 chain with C32S
B5: C73S-hTRX (enzyme)
chain: B1 chain with S35C, C73S
B6: C62/69S-hTRX (enzyme)
chain: B1 chain with S35C, C62S, C69S
B7: C62S-hTRX (enzyme)
chain: B1 chain with S35C, C62S

Biological target: human protein arginine deiminase 4 (PAD4) (human) (UniProt Q9UM07)
UniProt Q9UM07, sequence (Q9UM07 whole entry): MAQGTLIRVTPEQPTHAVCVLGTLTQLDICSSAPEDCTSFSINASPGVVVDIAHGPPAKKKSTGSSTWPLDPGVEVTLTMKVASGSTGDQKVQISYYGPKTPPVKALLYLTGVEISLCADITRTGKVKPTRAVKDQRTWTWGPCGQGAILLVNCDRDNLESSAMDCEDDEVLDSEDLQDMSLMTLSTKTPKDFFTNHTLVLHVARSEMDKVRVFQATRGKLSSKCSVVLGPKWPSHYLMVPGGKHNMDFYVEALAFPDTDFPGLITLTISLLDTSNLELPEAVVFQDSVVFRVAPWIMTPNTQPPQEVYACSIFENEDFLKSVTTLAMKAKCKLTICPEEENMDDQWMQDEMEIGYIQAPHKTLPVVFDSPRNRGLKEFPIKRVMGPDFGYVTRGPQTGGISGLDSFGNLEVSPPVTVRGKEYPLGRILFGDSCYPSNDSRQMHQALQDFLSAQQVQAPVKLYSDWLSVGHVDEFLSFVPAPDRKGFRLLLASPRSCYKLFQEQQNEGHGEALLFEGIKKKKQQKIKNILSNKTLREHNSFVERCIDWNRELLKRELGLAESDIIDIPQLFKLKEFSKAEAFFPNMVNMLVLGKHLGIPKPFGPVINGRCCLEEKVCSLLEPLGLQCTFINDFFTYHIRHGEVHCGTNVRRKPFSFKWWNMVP

Binder | K d(app): hTRX concentration (0-10 uM) giving half-maximal activation of PAD4 (citrullination of BAEE) [nM]
B1 | 1170
B2 | 1380
B3 | 620
B4 | 440
B5 | 780
B6 | 610
B7 | 1140
